Measured values: paper PMC3842537

Legend:
thrombin = thrombin (human, UniProt P00734;P00734 328-363;364-622); assay: FAM fluorescence recovery on GO array
PDGF-BB = PDGF-BB (human, UniProt P01127 82-190); assay: FAM fluorescence recovery on GO array
PDGF-BB, sequence (P01127 82-190): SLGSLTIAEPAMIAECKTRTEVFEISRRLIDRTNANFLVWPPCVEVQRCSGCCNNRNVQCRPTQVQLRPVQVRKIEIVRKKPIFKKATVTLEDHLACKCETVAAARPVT

| Binder | binding result (thrombin) | binding result (PDGF-BB) |
| --- | --- | --- |
| AGTCCGTGGTAGGGCAGGTTGGGGTGACT (structured_DNA) [thrombin aptamer (TASSET)] | binds | – |
| CAGGCTACGGCACGTAGAGCATCACCATGATCCTG (structured_DNA) [PDGF aptamer] | – | binds |
